Experimental data taken from patent publication US20220348651A1 (Novartis, published 2022).
Several values for one entry are separate records, joined by “and”; a condition that tells them apart may be missing. Equal values may be shown once.

T1: cyno ENTPD2 expressed on NIH/3T3 cells (cynomolgus macaque, UniProt Q9Y5L3 1-495 (human entry))
T1 construct: also called NIH3T3 cynoENTPD2; Cyno ENTPD2 NIH/3T3
T1 chain: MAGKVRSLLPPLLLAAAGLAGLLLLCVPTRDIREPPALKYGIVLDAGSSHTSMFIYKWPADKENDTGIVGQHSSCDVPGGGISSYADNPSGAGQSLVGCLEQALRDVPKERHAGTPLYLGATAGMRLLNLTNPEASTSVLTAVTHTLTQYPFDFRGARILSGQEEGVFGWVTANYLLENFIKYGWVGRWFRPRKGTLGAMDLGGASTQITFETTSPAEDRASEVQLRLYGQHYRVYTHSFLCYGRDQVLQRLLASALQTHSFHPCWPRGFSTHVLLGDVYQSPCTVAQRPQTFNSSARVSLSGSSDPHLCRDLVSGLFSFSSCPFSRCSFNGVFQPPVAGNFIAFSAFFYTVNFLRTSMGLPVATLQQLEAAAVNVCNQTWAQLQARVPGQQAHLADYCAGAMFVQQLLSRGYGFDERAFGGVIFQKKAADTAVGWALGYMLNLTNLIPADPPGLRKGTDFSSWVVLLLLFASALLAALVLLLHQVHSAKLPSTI

T2: ENTPD3 of H520 cells (UniProt O75355 1-529, limits assumed)
T2 construct: whole, on cells
T2 sequence (looked up): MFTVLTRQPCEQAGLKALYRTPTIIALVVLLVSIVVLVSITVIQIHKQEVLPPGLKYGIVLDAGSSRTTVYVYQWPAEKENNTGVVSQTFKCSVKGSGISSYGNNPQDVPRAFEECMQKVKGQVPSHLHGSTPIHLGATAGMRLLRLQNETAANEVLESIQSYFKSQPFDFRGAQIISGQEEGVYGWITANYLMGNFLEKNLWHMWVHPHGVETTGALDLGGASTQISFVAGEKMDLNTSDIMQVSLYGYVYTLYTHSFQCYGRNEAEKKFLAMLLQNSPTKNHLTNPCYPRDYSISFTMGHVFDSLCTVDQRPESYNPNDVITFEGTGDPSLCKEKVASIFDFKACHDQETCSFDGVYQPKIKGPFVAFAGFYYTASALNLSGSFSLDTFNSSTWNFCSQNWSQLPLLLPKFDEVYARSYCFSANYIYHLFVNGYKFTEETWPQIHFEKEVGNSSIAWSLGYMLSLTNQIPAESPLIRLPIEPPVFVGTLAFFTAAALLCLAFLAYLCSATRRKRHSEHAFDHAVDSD

T3: ENTPD8 of H520 cells (UniProt Q5MY95 1-495, limits assumed)
T3 construct: whole, on cells
T3 sequence (looked up): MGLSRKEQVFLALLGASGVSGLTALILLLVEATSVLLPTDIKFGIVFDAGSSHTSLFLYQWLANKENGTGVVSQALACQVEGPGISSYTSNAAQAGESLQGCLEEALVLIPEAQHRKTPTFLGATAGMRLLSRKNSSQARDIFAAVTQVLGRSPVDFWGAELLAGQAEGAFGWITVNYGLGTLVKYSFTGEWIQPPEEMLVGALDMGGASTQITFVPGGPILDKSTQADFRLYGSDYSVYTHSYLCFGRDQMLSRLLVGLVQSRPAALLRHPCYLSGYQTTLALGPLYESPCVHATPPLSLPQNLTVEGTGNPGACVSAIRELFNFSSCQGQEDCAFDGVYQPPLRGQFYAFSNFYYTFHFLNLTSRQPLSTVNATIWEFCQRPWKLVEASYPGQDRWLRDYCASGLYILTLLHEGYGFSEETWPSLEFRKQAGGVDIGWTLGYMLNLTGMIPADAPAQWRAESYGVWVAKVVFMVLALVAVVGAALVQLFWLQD

T4: human ENTPD2 expressed on cells (human, UniProt Q9Y5L3 1-495)
T4 sequence: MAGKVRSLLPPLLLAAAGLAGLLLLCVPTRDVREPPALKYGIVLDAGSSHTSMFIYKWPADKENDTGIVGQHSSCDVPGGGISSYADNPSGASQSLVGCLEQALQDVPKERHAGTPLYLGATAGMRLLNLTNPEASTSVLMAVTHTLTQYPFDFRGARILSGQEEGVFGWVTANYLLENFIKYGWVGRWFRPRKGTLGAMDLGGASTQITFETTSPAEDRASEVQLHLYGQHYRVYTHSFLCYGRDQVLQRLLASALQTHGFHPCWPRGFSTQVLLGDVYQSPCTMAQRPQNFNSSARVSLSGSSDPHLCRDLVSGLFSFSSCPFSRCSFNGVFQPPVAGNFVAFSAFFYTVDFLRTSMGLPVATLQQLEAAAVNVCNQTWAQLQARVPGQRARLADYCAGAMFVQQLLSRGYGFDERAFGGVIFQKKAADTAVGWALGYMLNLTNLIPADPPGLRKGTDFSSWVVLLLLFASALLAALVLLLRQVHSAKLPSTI


What was measured:
[1] = biological target: T1, cyno ENTPD2 expressed on NIH/3T3 cells; assay: flow cytometry, NIH3T3 cyno ENTPD2 cells
[2] = biological target: T2, ENTPD3 of H520 cells; assay: flow cytometry, H520 cells
[3] = biological target: T3, ENTPD8 of H520 cells; assay: flow cytometry, H520 cells
[4] = biological target: T4, human ENTPD2 expressed on cells; assay: cell-based or functional assay
[5] = biological target: T1, cyno ENTPD2 expressed on NIH/3T3 cells; assay: cell-based or functional assay
[6] = biological target: recombinant human ENTPD2 extracellular domain (residues 29-462) with C-terminal Avi-His6 tag (human, UniProt Q9Y5L3 29-462, biotinylated on the AviTag in the epitope binning assay); assay: cell-based or functional assay
[7] = biological target: human FcγRIIIa, V158 (high affinity variant) on engineered Jurkat cells (human, UniProt P08637 17-254); assay: cell-based or functional assay
Sequence of human FcγRIIIa, V158 (high affinity variant) on engineered Jurkat cells (P08637 other isoform, or with tags, fused parts or gaps mutant limits assumed): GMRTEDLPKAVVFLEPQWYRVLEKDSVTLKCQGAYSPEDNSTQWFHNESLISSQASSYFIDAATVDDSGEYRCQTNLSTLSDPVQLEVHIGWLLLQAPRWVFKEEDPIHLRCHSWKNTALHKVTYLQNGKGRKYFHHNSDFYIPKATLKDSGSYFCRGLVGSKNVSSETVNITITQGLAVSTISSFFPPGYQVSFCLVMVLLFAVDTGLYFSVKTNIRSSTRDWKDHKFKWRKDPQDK

EC50 [1] [nM]	binding result [2]	binding result [3]	% inhibition, Human ENTPD2 NIH/3T3 Assay [4] [%]	% inhibition, RKO Assay [4] [%]	IC50, Human ENTPD2 NIH/3T3 Assay [4] [nM]	IC50, RKO Assay [4] [nM]	% inhibition, Cyno ENTPD2 NIH/3T3 Assay [5] [%]	IC50, Cyno ENTPD2 NIH/3T3 Assay [5] [nM]	IC50, ENTPD2 Biochemical Assay at 1 uM ATP [6] [nM]	EC50, Jurkat FcγRIIIa V158 NFAT-luciferase reporter with RKO cells [7]	Binder
1.7	no binding (tested: 50 nM)	no binding (tested: 50 nM)	88	77	0.4	0.2	86	0.5	–	–	ANTI-HUMAN ENTPD2 MAB10 (antibody, human IgG1, lambda, V domains shown, also called Anti-ENTPD2 mAb10) VH: QVQLVQSGAEVKKPGSSVKVSCKASGGTFDSYAVSWVRQAPGQGLEWMGRIVPWLGFTRYAQKFQGRVTITADESTSTAYMELSSLRSEDTAVYYCARESPGYRYSFDVWDQGTLVTVSS VL: SYELTQPLSVSVALGQTARITCSGDAIGEKYVYWYQQKPGQAPVLVIYDDNNRPSGIPERFSGSNSGNTATLTISRAQAGDEADYYCASYDLQQARWVFGGGTKLTVLG
3.3	no binding (tested: 50 nM)	no binding (tested: 50 nM)	92	97	1.1	0.8	91	4.1	0.52	17.3 nM and 2.55 µg/mL	ANTI-HUMAN ENTPD2 MAB1 (antibody, human IgG1, kappa, humanized from mAb17; human IgG1, kappa; also called anti-ENTPD2 mAb1) heavy: not shown light: DIQLTQSPSSLSASVGDRVTITCSASSSVSYIHWFQQKPGKAPKLLIYSTSNLASGVPSRFSGSGSGTFFTLTISSLQPEDFATYFCHQWSSYPWTFGQGTKVEIKRTVAAPSVFIFPPSDEQLKSGTASVVCLLNNFYPREAKVQWKVDNALQSGNSQESVTEQDSKDSTYSLSSTLTLSKADYEKHKVYACEVTHQGLSSPVTKSFNRGEC
